Test results taken from patent publication CN109627340A (UNIV SHANGHAI JIAOTONG; JECHO LABORATORIES INC, dated 2019).

Target: T1, 人PRLR胞外结构域 (Sino Biological) (human, UniProt P16471 25-234)
T1 construct: Bought recombinant protein (Sino Biological); also called PRLR胞外区; PRLR ECD
T1 sequence (looked up): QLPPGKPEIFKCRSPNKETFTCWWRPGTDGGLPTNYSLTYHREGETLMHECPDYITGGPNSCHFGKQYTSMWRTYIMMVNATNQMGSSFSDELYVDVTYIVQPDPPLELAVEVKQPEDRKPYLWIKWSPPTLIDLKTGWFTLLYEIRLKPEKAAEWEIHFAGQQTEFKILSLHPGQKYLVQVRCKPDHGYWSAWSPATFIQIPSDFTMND
Test: SPR, Biacore T200, antigen amine-coupled to CM5 chip

B1: PRLR-DbsAb (CD3×PRLR双特异性抗体) (bispecific antibody, human IgG1, kappa)
heavy 1: not shown
light 1: DIQMTQSPSSLSASVGDRVTITCSASSSVSYMNWYQQTPGKAPKRWIYDTSKLASGVPSRFSGSGSGTDYTFTISSLQPEDIATYYCQQWSSNPFTFGQGTKLQITRTVAAPSVFIFPPSDEQLKSGTASVVCLLNNFYPREAKVQWKVDNALQSGNSQESVTEQDSKDSTYSLSSTLTLSKADYEKHKVYACEVTHQGLSSPVTKSFNRGEC
heavy 2: not shown
light 2: not shown
notes: also called PRLR-DsbAb; CD3和PRLR双特异性抗体
With B1 as the binder, how does the Kd read?
Its Kd is 2.31 nM.

And the koff?
Its koff is 0.000679 s⁻¹.

And the kon?
The kon was 294000 M⁻¹ s⁻¹.
